Laboratory results from paper PMC3268005 (Journal of the American Chemical Society, 2011).

How the values were obtained:
[1] = molecular target: Candida albicans cytosolic manganese superoxide dismutase (CaMnSODc) (Candida albicans); test: crystal structure
[2] = molecular target: Candida albicans cytosolic manganese superoxide dismutase (CaMnSODc) (Candida albicans); test: SEC
[3] = molecular target: Candida albicans cytosolic manganese superoxide dismutase (CaMnSODc) (Candida albicans); test: crystal structure; remark: listed apart in the source
[4] = molecular target: the molecule itself; test: SEC

Candida albicans cytosolic manganese superoxide dismutase (CaMnSODc) (enzyme)
stoichiometry N [1]: 2
stoichiometry N [2]: 2
stoichiometry N [3]: 4

B1: Saccharomyces cerevisiae mitochondrial manganese superoxide dismutase (ScMnSOD) (enzyme, UniProt P00447 27-233, looked up)
chain: KVTLPDLKWDFGALEPYISGQINELHYTKHHQTYVNGFNTAVDQFQELSDLLAKEPSPANARKMIAIQQNIKFHGGGFTNHCLFWENLAPESQGGGEPPTGALAKAIDEQFGSLDELIKLTNTKLAGVQGSGWAFIVKNLSNGGKLDVVQTYNQDTVTGPLVPLVAIDAWEHAYYLQYQNKKADYFKAIWNVVNWKEASRRFDAGKI
stoichiometry N [4]: 4
